Tests used:
[1] = test system: bone marrow derived dendritic cells (DC); test: Bone marrow derived dendritic cells expressing selective NF-κB activators: cytokine production, antigen presentation, immune response; assay type: cell-based; details: compared to control DC
Excerpt: The disclosure further provides that expression of a selective NF-κB activator can be used to improve the cytokine secretion, antigen presentation and immune response generated by antigen presenting cells, including dendritic cells. The disclosure further provides a method of improving the efficacy of vaccine, including cancer vaccines, by expression of a selective NF-κB activator in the antigen presenting cells ex vivo or in vivo. In one embodiment, the use of selective NF-κB activators increase cytokine production (e.g., TNFα) by antigen presenting cells (e.g., dendritic cells) by more than at least 15%.

EG7.OVA tumor cells = test: EG7.OVA tumor therapy in C57BL/6 mice; assay type: in vivo, mouse; details: transduced DC injection or direct lentivector injection after lethal dose of EG7.OVA
Experimental: Tumor therapy. EG7.OVA tumor cells are grown in RPMI plus 0.4 mg/ml G418 (Invitrogen). C57BL/6 mice are challenged with 2×10^6 tumor cells injected s.c. into the flank and then vaccinated.
Mice are inoculated with a lethal dose of EG7.OVA tumor cells before vaccinating them either with transduced DCs or with the human NEMO-K277A-, human NEMO-K277A-deltaV249-K255-, mouse NEMO-K270A- and IKK2-S177E-S181E-vectors directly. All mice are shown to develop tumors.

NF-κB = test: NF-κB-Luciferase reporter assay in transfected 293FT cells (normalized to RSV-LacZ); assay type: cell-based; details: NF-κB-Luciferase plus RSV-LacZ reporter
Experimental: The different constructs were transfected in 293FT cells along with an NF-κB-Luciferase reporeter construct and a RSV-LacZ (normalization control) reporter construct and tested for their ability to activate NF-κB using assay described previously.
The constructs were transfected into 293FT cells along with an NF-κB-Luciferase reporeter construct and a RSV-LacZ reporter construct. Approximately 8 hours, post-transfection, cells were left untreated or treated with AP20187 (100 nM). After approximately 72 hours, cell lysates were prepared and analyzed for NF-κB luciferase and LacZ activities as described previously. NF-κB-Luc activity was normalized for LacZ activity to control for difference in transfection efficiency.

BM-derived DCs = test: Maturation markers on transduced bone marrow-derived dendritic cells by flow cytometry; assay type: cell-based, mouse; details: for maturation markers CD86, CD40, ICAM-1 and CD80 on DCs: compared to transduced DCs in the control vector group; for retention of CD86 on transduced DCs: culture
Experimental: Transduction of DCs and flow cytometry. Murine bone marrow-derived Dendritic cells (DCs) are prepared as previously described. Immature DCs are transduced on day 4 at an MOT of 20 with lentiviral vectors as described (Rowe H M et al, Molecular Therapy, 13, 2, 2006) and fed every 4 days with fresh medium containing granulocyte-macrophage colony-stimulating factor (50 ng/ml; from Peprotech). On day 5 posttransduction, DCs are harvested, washed, and blocked for Fc receptors before surface staining for maturation markers with the following biotin-conjugated Abs: anti-CD11c, anti-CD86, and anti-I-Ab (MHC class II) (all from BD Pharmingen); anti-CD40 (from Serotec); and anti-CD80, anti-ICAM-1, and anti-Kb (MHC class I) (all from eBioscience). A hamster isotype control Ab (biotin conjugated) is purchased from BD Pharmingen. Abs are then labeled with streptavidin RPE Cy-5 2o reagent (DakoCytomation) before flow cytometry. Lipopolysaccharide (LPS) (50 ng/ml) (Sigma) is added to untransduced DCs and left overnight as a positive control for maturation. Zymosan A (10 μg/ml) treatment (for 30 min at 37° C.) is used as a control for ERK activation.

lymph node DCs = test: Lymph node dendritic cells after subcutaneous lentivector injection; assay type: in vivo, mouse; details: s.c. lentivector injection; compared to control vector-injected animals
Experimental: DC purification from lymph nodes. C57/BL6 mice (Harlan) are injected subcutaneously (s.c.) at the base of the tail with 1×10^8 infectious units (i.u.) lentivector. Six days later, lymph nodes (para-aortical and inguinal) are harvested (cells from mice in each group were pooled), incubated with collagenase CLS-4 (Worthington), and mashed to obtain single-cell suspensions. Fc receptors are blocked before CD11c-positive cells are selected using MACS beads (Miltenyi Biotec).
Following s.c. lentivector injection, transduced DCs are detected in the draining lymph nodes.

Molecule | cytokine production, antigen presentation and immune response of DC [1] | number of tumor-free mice (EG7.OVA tumor cells) | activation of NF-κB (NF-κB) | maturation markers CD86, CD40, ICAM-1 and CD80 on DCs (BM-derived DCs) | retention of CD86 on transduced DCs (BM-derived DCs) | CD86 on lymph node DCs (lymph node DCs)
K13-opt: vFLIP K13 encoded by human codon optimized nucleic acid sequence | superior cytokine production, antigen presentation, and immune response |  |  |  |  | 
hNEMO-K277A: human NEMO mutant K277A, constitutively active selective NF-κB activator used as accessory module | superior cytokine production, antigen presentation, and immune response | higher than that in the control group | strong activation | upregulated | retain their upregulated CD86 for several weeks in culture | upregulation of CD86
hNEMO-K277G: hNEMO mutant in which Lys (K) at residue 277 is replaced by G |  |  | weak activation |  |  | 
hNEMO-K277I: hNEMO mutant in which Lys (K) at residue 277 is replaced by I |  |  | weak activation |  |  | 
hNEMO-K277L: hNEMO mutant K277L |  |  | NF-κB activation |  |  | 
hNEMO-K277A-DeltaV249-K255: mutant lacking aminoacid residues V249-K255 of human NEMO and carrying the K277A mutation (protein) MNRHLWKSQLCEMVQPSGGPAADQDVLGEESPLGKPAMLHLPSEQGAPETLQRCLEENQELRDAIRQSNQILRERCEELLHFQASQREEKEFLMCKFQEARKLVERLGLEKLDLKRQKEQALREVEHLKRCQQQMAEDKASVKAQVTSLLGELQESQSRLEAATKECQALEGRARAASEQARQLESEREALQQQHSVQVDQLRMQGQSVEAALRMERQAASEEKRKLAQLQVAYHQLFQEYDNHIKSSRGMQLEDLKQQLQQAEEALVAAQEVIDKLKEEAEQHKIVMETVPVLKAQADIYKADFQAERQAREKLAEKKELLQEQLEQLQREYSKLKASCQESARIEDMRKRHVEVSQAPLPPAPAYLSSPLALPSQRRSPPEEPPDFCCPKCQYQAPDMDTLQIHVMECIE | superior cytokine production, antigen presentation, and immune response | higher than that in the control group | NF-κB activation | upregulated | retain their upregulated CD86 for several weeks in culture | upregulation of CD86
mNEMO-K270A: mouse NEMO-K270A mutant, known to activate NF-κB constitutively (protein) MNKHPWKNQLSETVQPSGGPAEDQDMLGEESSLGKPAMLHLPSEQGTPETLQRCLEENQELRDAIRQSNQMLRERCEELLHFQVSQREEKEFLMCKFQEARKLVERLSLEKLDLRSQREQALKELEQLKKCQQQMAEDKASVKAQVTSLLGELQESQSRLEAATKDRQALEGRIRAVSEQVRQLESEREVLQQQHSVQVDQLRMQNQSVEAALRMERQAASEEKRKLAQLQAAYHQLFQDYDSHIKSSKGMQLEDLRQQLQQAEEALVAAQELIDKLKEEAEQHKIVMETVPVLKAQADIYKADFQAERHAREKLVEKKEYLQEQLEQLQREFNKLKVGCHESARIEDMRKRHVETPQPPLLPAPAHHSFHLALSNQRRSPPEEPPDFCCPKCQYQAPDMDTLQIHVMECIE | superior cytokine production, antigen presentation, and immune response | higher than that in the control group | strong activation | upregulated | retain their upregulated CD86 for several weeks in culture | upregulation of CD86
IKK2-S177E-S181E: constitutive active mutant of IKKβ/IKK2 (protein) MSWSPSLTTQTCGAWEMKERLGTGGFGNVIRWHNQETGEQIAIKQCRQELSPRNRERWCLEIQIMRRLTHPNVVAARDVPEGMQNLAPNDLPLLAMEYCQGGDLRKYLNQFENCCGLREGAILTLLSDIASALRYLHENRIIHRDLKPENIVLQQGEQRLIHKIIDLGYAKELDQGELCTEFVGTLQYLAPELLEQQKYTVTVDYWSFGTLAFECITGFRPFLPNWQPVQWHSKVRQKSEVDIVVSEDLNGTVKFSSSLPYPNNLNSVLAERLEKWLQLMLMWHPRQRGTDPTYGPNGCFKALDDILNLKLVHILNMVTGTIHTYPVTEDESLQSLKARIQQDTGIPEEDQELLQEAGLALIPDKPATQCISDGKLNEGHTLDMDLVFLFDNSKITYETQISPRPQPESVSCILQEPKRNLAFFQLRKVWGQVWHSIQTLKEDCNRLQQGQRAAMMNLLRNNSCLSKMKNSMASMSQQLKAKLDFFKTSIQIDLEKYSEQTEFGITSDKLLLAWREMEQAVELCGRENEVKLLVERMMALQTDIVDLQRSPMGRKQGGTLDDLEEQARELYRRLREKPRDQRTEGDSQEMVRLLLQAIQSFEKKVRVIYTQLSKTVVCKQKALELLPKVEEVVSLMNEDEKTVVRLQEKRQKELWNLLKIACSKVRGPVSGSPDSMNASRLSQPGQLMSQPSTASNSLPEPAKKSEELVAEAHNLCTLLENAIQDTVREQDQSFTALDWSWLQTEEEEHSCLEQAS | superior cytokine production, antigen presentation, and immune response | higher than that in the control group |  | upregulated | retain their upregulated CD86 for several weeks in culture | upregulation of CD86
IKK1-S176E-S180E: constitutive active mutant of IKKa/IKK1 (protein) MERPPGLRPGAGGPWEMRERLGTGGFGNVCLYQHRELDLKIAIKSCRLELSTKNRERWCHEIQIMKKLNHANVVKACDVPEELNILIHDVPLLAMEYCSGGDLRKLLNKPENCCGLKESQILSLLSDIGSGIRYLHENKIIHRDLKPENIVLQDVGGKIIHKIIDLGYAKDVDQGELCTEFVGTLQYLAPELFENKPYTATVDYWSFGTMVFECIAGYRPFLHHLQPFTWHEKIKKKDPKCIFACEEMSGEVRFSSHLPQPNSLCSLIVEPMENWLQLMLNWDPQQRGGPVDLTLKQPRCFVLMDHILNLKIVHILNMTSAKIISFLLPPDESLHSLQSRIERETGINTGSQELLSETGISLDPRKPASQCVLDGVRGCDSYMVYLFDKSKTVYEGPFASRSLSDCVNYIVQDSKIQLPIIQLRKVWAEAVHYVSGLKEDYSRLFQGQRAAMLSLLRYNANLTKMKNTLISASQQLKAKLEFFHKSIQLDLERYSEQMTYGISSEKMLKAWKEMEEKAIHYAEVGVIGYLEDQIMSLHAEIMGLQKSPYGRRQGDLMESLEQRAIDLYKQLKHRPSDHSYSDSTEMVKIIVHTVQSQDRVLKELFGHLSKLLGCKQKIIDLLPKVEVALSNIKEADNTVMFMQGKRQKEIWHLLKIACTQSSARSLVGSSLEGAVTPQTSAWLPPTSAEHDHSLSCVVTPQDGETSAQMIEENLNCLGHLSTIIHEANEEQGNSMMNLDWSWLTE | superior cytokine production, antigen presentation, and immune response |  |  |  |  | 

Source: patent publication US12570711B2, “Platforms for co-stimulation, novel car designs and other enhancements for adoptive cellular therapy” (Angeles Therapeutics, Inc., priority 2017, dated 2026)
